Measured values reported in patent US20240132624A1 (Ablynx, published 2024).
Where a chain is given by its changes, count along the chain named.

B1: T0263018B11 S52aY (VHH, name in Kabat numbering)
VHH: EVQLVESGGGVVQPGGSLRLSCAASGFTFSSYAMYWVRQAPGKGLEWVSAISYGGGSTDYADSVKGRFTISRDNSKNTLYLQMNSLRPEDTALYYCAADTLYTSLTWYSYWGQGTLVTVSS
notes: FLAG3-His6 tagged
B2: T0263018B11 S56T (VHH, name in Kabat numbering)
VHH: B1 VHH with Y53S, S57T
notes: FLAG3-His6 tagged
B3: T0263018B11 S100M (VHH, name in Kabat numbering)
VHH: B1 VHH with Y53S, S104M
notes: FLAG3-His6 tagged
B4: T0263018B11 S56V (VHH, name in Kabat numbering)
VHH: B1 VHH with Y53S, S57V
notes: FLAG3-His6 tagged
B5: T0263018B11 S101Q (VHH, name in Kabat numbering)
VHH: B1 VHH with Y53S, S109Q
notes: FLAG3-His6 tagged
B6: T0263018B11 T28I (VHH, name in Kabat numbering)
VHH: B1 VHH with T28I, Y53S
notes: FLAG3-His6 tagged
B7: T0263018B11 S100Q (VHH, name in Kabat numbering)
VHH: B1 VHH with Y53S, S104Q
notes: FLAG3-His6 tagged
B8: T0263018B11 S56Q (VHH, name in Kabat numbering)
VHH: B1 VHH with Y53S, S57Q
notes: FLAG3-His6 tagged
B9: T0263018B11 S101V (VHH, name in Kabat numbering)
VHH: B1 VHH with Y53S, S109V
notes: FLAG3-His6 tagged
B10: T0263018B11 S101E (VHH, name in Kabat numbering)
VHH: B1 VHH with Y53S, S109E
notes: FLAG3-His6 tagged
B11: T0263018B11 T28W (VHH, name in Kabat numbering)
VHH: B1 VHH with T28W, Y53S
notes: FLAG3-His6 tagged
B12: T0263018B11 S56H (VHH, name in Kabat numbering)
VHH: B1 VHH with Y53S, S57H
notes: FLAG3-His6 tagged
B13: T0263018B11 T28V (VHH, name in Kabat numbering)
VHH: B1 VHH with T28V, Y53S
notes: FLAG3-His6 tagged
B14: T0263018B11 T28P (VHH, name in Kabat numbering)
VHH: B1 VHH with T28P, Y53S
notes: FLAG3-His6 tagged
B15: T0263018B11 S100K (VHH, name in Kabat numbering)
VHH: B1 VHH with Y53S, S104K
notes: FLAG3-His6 tagged
B16: T0263018B11 T28Y (VHH, name in Kabat numbering)
VHH: B1 VHH with T28Y, Y53S
notes: FLAG3-His6 tagged
B17: T0263018B11 T57P (VHH, name in Kabat numbering)
VHH: B1 VHH with Y53S, T58P
notes: FLAG3-His6 tagged
B18: T0263018B11 S101T (VHH, name in Kabat numbering)
VHH: B1 VHH with Y53S, S109T
notes: FLAG3-His6 tagged
B19: T0263018B11 S101W (VHH, name in Kabat numbering)
VHH: B1 VHH with Y53S, S109W
notes: FLAG3-His6 tagged
B20: T0263018B11 S56A (VHH, name in Kabat numbering)
VHH: B1 VHH with Y53S, S57A
notes: FLAG3-His6 tagged
B21: T0263018B11 T57S (VHH, name in Kabat numbering)
VHH: B1 VHH with Y53S, T58S
notes: FLAG3-His6 tagged
B22: T0263018B11 T57L (VHH, name in Kabat numbering)
VHH: B1 VHH with Y53S, T58L
notes: FLAG3-His6 tagged
B23: T0263018B11 S101M (VHH, name in Kabat numbering)
VHH: B1 VHH with Y53S, S109M
notes: FLAG3-His6 tagged
B24: T0263018B11 T57F (VHH, name in Kabat numbering)
VHH: B1 VHH with Y53S, T58F
notes: FLAG3-His6 tagged
B25: T0263018B11 T57N (VHH, name in Kabat numbering)
VHH: B1 VHH with Y53S, T58N
notes: FLAG3-His6 tagged
B26: T0263018B11 T57I (VHH, name in Kabat numbering)
VHH: B1 VHH with Y53S, T58I
notes: FLAG3-His6 tagged
B27: T0263018B11 S101A (VHH, name in Kabat numbering)
VHH: B1 VHH with Y53S, S109A
notes: FLAG3-His6 tagged
B28: T0263018B11 S56L (VHH, name in Kabat numbering)
VHH: B1 VHH with Y53S, S57L
notes: FLAG3-His6 tagged
B29: T0263018B11 T28L (VHH, name in Kabat numbering)
VHH: B1 VHH with T28L, Y53S
notes: FLAG3-His6 tagged
B30: T0263018B11 S56K (VHH, name in Kabat numbering)
VHH: B1 VHH with Y53S, S57K
notes: FLAG3-His6 tagged
B31: T0263018B11 T28N (VHH, name in Kabat numbering)
VHH: B1 VHH with T28N, Y53S
notes: FLAG3-His6 tagged

molecular target: T1, human FcRn/b2M (human, UniProt P61769 21-119, biotinylated); experiment: SPR pH 6.0;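 note: surface plasmon resonance kinetics at 25 °C, diluted periplasmic extracts injected over immobilized ligand surfaces, 120 s association then 600–3600 s dissociation, running buffer containing 150 mM NaCl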
T1 construct: bought recombinant biotinylated protein (ACRO FCM-H82W4 or Immunitrack ITF01); also called hFcRn; hFcRn/hb2M
Protocol: (§1) All kinetic measurements have been performed on ProteOn XPR36 (BioRad Laboratories, Inc.), MASS-2 (Sierra sensors, Gmbh) or SPR-32 (Bruker Corporation). […] The phytip purified periplasmic extracts were diluted 1:10 in running buffer (CPA+150 mM NaCl+0.005% Tw20 at pH 5.5, pH 6.0 or pH 7.4) and injected over the ligand surfaces (association: 120 s at 45 μL/min; dissociation: 600s-3600 s at 45 μL/min). Experiments were carried out at 25° C.

Row | koff [s⁻¹] | Binder
1 | 0.00083 | B1
2 | 0.0013 | B2
3 | 0.00056 | B3
4 | 0.0013 | B4
5 | 0.00055 | B5
6 | 0.0011 | B6
7 | 0.0019 | B7
8 | 0.0022 | B8
9 | 0.00073 | B9
10 | 0.00018 | B10
11 | 0.00041 | B11
12 | 0.0016 | B12
13 | 0.0032 | B13
14 | 0.0015 | B14
15 | 0.0032 | B15
16 | 0.0012 | B16

Row | koff [s⁻¹] | Binder
17 | 0.0015 | B17
18 | 0.00057 | B18
19 | 7e-05 | B19
20 | 0.0013 | B20
21 | 0.0011 | B21
22 | 0.0011 | B22
23 | 0.0011 | B23
24 | 0.00099 | B24
25 | 0.00086 | B25
26 | 0.0015 | B26
27 | 0.0017 | B27
28 | 0.00075 | B28
29 | 0.0018 | B29
30 | 0.0021 | B30
31 | 0.0019 | B31

molecular target: T2, cyno FcRn/b2M (cyno, UniProt Q8SPV9 24-297; Q8SPW0 21-119, biotinylated); experiment: SPR pH 6.0;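 note: surface plasmon resonance kinetics at 25 °C, diluted periplasmic extracts injected over immobilized ligand surfaces, 120 s association then 600–3600 s dissociation, running buffer containing 150 mM NaCl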
T2 construct: bought recombinant biotinylated protein (Immunitrack ITF05 or ACRO FCM-C82W5); also called cFcRn; cFcRn/cb2M
T2 sequence (Q8SPV9 24-297 limits assumed, chain 1 of 2): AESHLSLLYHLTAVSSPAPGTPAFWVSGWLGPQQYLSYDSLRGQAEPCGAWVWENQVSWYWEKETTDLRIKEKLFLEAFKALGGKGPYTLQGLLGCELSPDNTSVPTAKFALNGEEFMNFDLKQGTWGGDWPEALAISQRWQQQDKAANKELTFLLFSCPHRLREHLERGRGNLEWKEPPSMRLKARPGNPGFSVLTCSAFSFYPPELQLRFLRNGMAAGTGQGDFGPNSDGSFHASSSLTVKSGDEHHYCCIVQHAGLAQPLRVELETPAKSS
T2 sequence (Q8SPW0 21-119 limits assumed, chain 2 of 2): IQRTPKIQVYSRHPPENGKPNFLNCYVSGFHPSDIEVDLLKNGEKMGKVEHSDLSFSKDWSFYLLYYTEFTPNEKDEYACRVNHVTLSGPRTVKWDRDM
Protocol: as §1

Row | koff [s⁻¹] | Binder
32 | 0.00052 | B1
33 | 0.001 | B2
34 | 0.00024 | B3
35 | 0.001 | B4
36 | 0.00038 | B5
37 | 0.00044 | B6
38 | 0.00084 | B7
39 | 0.0018 | B8
40 | 0.00058 | B9
41 | 9.4e-05 | B10
42 | 0.00017 | B11
43 | 0.0013 | B12
44 | 0.0022 | B13
45 | 0.0012 | B14
46 | 0.0012 | B15
47 | 0.00053 | B16

Row | koff [s⁻¹] | Binder
48 | 0.0013 | B17
49 | 0.00036 | B18
50 | 9.7e-05 | B19
51 | 0.001 | B20
52 | 0.00071 | B21
53 | 0.0009 | B22
54 | 0.00068 | B23
55 | 0.00084 | B24
56 | 0.00062 | B25
57 | 0.0014 | B26
58 | 0.0013 | B27
59 | 0.00045 | B28
60 | 0.0013 | B29
61 | 0.0018 | B30
62 | 0.0009 | B31

molecular target: T1, human FcRn/b2M; experiment: SPR pH 7.4;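 note: surface plasmon resonance kinetics, periplasmic extracts diluted 1:10 flowed over immobilized target at 25 °C, 120 s association then 600–3600 s dissociation, buffer with 150 mM NaCl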
Protocol: as §1

Row | koff [s⁻¹] | Binder
63 | 0.035 | B1
64 | 0.055 | B2
65 | 0.032 | B3
66 | 0.044 | B4
67 | 0.025 | B5
68 | 0.049 | B6
69 | 0.13 | B7
70 | 0.067 | B8
71 | 0.032 | B9
72 | 0.0078 | B10
73 | 0.024 | B11
74 | 0.055 | B12
75 | 0.12 | B13
76 | 0.039 | B14
77 | 0.18 | B15
78 | 0.071 | B16

Row | koff [s⁻¹] | Binder
79 | 0.045 | B17
80 | 0.025 | B18
81 | 0.0012 | B19
82 | 0.051 | B20
83 | 0.041 | B21
84 | 0.04 | B22
85 | 0.048 | B23
86 | 0.033 | B24
87 | 0.037 | B25
88 | 0.049 | B26
89 | 0.062 | B27
90 | 0.02 | B28
91 | 0.073 | B29
92 | 0.053 | B30
93 | 0.097 | B31

molecular target: T2, cyno FcRn/b2M; experiment: SPR pH 7.4;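 note: surface plasmon resonance kinetics, periplasmic extracts diluted 1:10 flowed over immobilized target at 25 °C, 120 s association then 600–3600 s dissociation, buffer with 150 mM NaCl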
Protocol: as §1

Row | koff [s⁻¹] | Binder
94 | 0.023 | B1
95 | 0.047 | B2
96 | 0.016 | B3
97 | 0.038 | B4
98 | 0.016 | B5
99 | 0.033 | B6
100 | 0.058 | B7
101 | 0.068 | B8
102 | 0.026 | B9
103 | 0.0034 | B10
104 | 0.014 | B11
105 | 0.046 | B12
106 | 0.092 | B13
107 | 0.033 | B14
108 | 0.083 | B15
109 | 0.042 | B16

Row | koff [s⁻¹] | Binder
110 | 0.054 | B17
111 | 0.019 | B18
112 | 0.00086 | B19
113 | 0.045 | B20
114 | 0.029 | B21
115 | 0.035 | B22
116 | 0.037 | B23
117 | 0.036 | B24
118 | 0.03 | B25
119 | 0.06 | B26
120 | 0.058 | B27
121 | 0.013 | B28
122 | 0.062 | B29
123 | 0.044 | B30
124 | 0.069 | B31

molecular target: T1, human FcRn/b2M; experiment: SPR off-rate; pH 7.4 vs pH 6.0;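 note: surface plasmon resonance with diluted periplasmic extracts flowed over ligand surfaces, 120 s association and 600–3600 s dissociation at 25 °C, running buffer containing 150 mM NaCl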
Protocol: as §1

Row | kd ratio pH 7.4/6.0 | Binder
125 | 42 | B1
126 | 42 | B2
127 | 57 | B3
128 | 34 | B4
129 | 45 | B5
130 | 46 | B6
131 | 68 | B7
132 | 30 | B8
133 | 43 | B9
134 | 44 | B10
135 | 59 | B11
136 | 35 | B12
137 | 38 | B13
138 | 26 | B14
139 | 54 | B15
140 | 59 | B16

Row | kd ratio pH 7.4/6.0 | Binder
141 | 30 | B17
142 | 44 | B18
143 | 17 | B19
144 | 39 | B20
145 | 39 | B21
146 | 37 | B22
147 | 44 | B23
148 | 33 | B24
149 | 43 | B25
150 | 33 | B26
151 | 36 | B27
152 | 26 | B28
153 | 41 | B29
154 | 25 | B30
155 | 51 | B31

molecular target: T2, cyno FcRn/b2M; experiment: SPR off-rate; pH 7.4 vs pH 6.0;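 note: surface plasmon resonance with diluted periplasmic extracts flowed over ligand surfaces, 120 s association and 600–3600 s dissociation at 25 °C, running buffer containing 150 mM NaCl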
Protocol: as §1

Row | kd ratio pH 7.4/6.0 | Binder
156 | 44 | B1
157 | 47 | B2
158 | 68 | B3
159 | 37 | B4
160 | 43 | B5
161 | 75 | B6
162 | 69 | B7
163 | 38 | B8
164 | 45 | B9
165 | 36 | B10
166 | 80 | B11
167 | 36 | B12
168 | 42 | B13
169 | 28 | B14
170 | 69 | B15
171 | 79 | B16

Row | kd ratio pH 7.4/6.0 | Binder
172 | 42 | B17
173 | 54 | B18
174 | 9 | B19
175 | 45 | B20
176 | 41 | B21
177 | 39 | B22
178 | 54 | B23
179 | 43 | B24
180 | 48 | B25
181 | 43 | B26
182 | 45 | B27
183 | 28 | B28
184 | 48 | B29
185 | 25 | B30
186 | 77 | B31
